Non-standard residues stand in square brackets, D forms with d. No end group written: not given here. *: point of attachment. Biotin = O=C1N[C@H]2[C@H](CS[C@H]2CCCCC(=O)*)N1; Dnp = O=[N+]([O-])c1ccc(*)c([N+](=O)[O-])c1; Mca = COc1ccc2c(CC(=O)*)cc(=O)oc2c1; Ahx = NCCCCCC(=O)O
Tests used:
[1] = tested on: CTFβ accumulation (cleavage of APP by BACE1) in HEK 293-APP cells; experiment: Level of CTFβ in HEK 293-APP cells (immunoblot, 6E10); type: cell-based, human; conditions: HEK293-APP cells, 9 h
Protocol: When the confluency of the cells reached 90%, the cells were washed with PBS once, and HC peptide in serum free DMEM was added to the cells. […] The lysed cells were centrifuged at 12000×g for 10 min at 4° C. The protein in the supernatant was determined by bicinchoninic acid assay (Pierce, IL, USA) [Smith, P. K., Krohn, R. I., Hermanson, G. T., Mallia, A. K., Gartner, F. H., Provenzano, M. D., Fujimoto, E. K., Goeke, N. M., Olson, B. J., and Klenk, D. C. […] After electrophoresis, the proteins in the gel were electrophoretically transferred onto a polyvinylidene difluoride (PVDF) membrane at 100 mA for 80 min. The blotted membrane was fixed with 0.2% glutaraldehyde in PBS for 45 min at RT and treated for 5 min in boiling PBS. CTFβ (the C-terminal fragment of APP generated by BACE1) was detected by treatment of the membrane with 0.5 μg/ml of anti-Aβ Nterminal 6E10 antibody (Signetlabs, Inc., MA, USA) followed by incubation with 0.2 μg/ml of anti-mouse antibody coupled with HRP (Amersham Biosciences Ltd. Uppsala, Sweden). The developed film was scanned and the density of CTFβ band was determined by Scion Image Program (Scion Corporation, MD, USA).

[2] = tested on: production of Aβ in HEK 293-APP cells; experiment: Measurement of Aβ level in culture media of HEK293-APP cells (Aβ1-40 immunoassay); type: cell-based, human
Protocol: Human embryonic kidney (HEK) 293 cells stably transformed with the gene for APP695 (HEK 293-APP) were used for studies on the inhibitory activity of HC peptides. HEK 293-APP cells were generously supplied by Dr. T W Kim (Columbia University, NY, USA). HEK 293-APP cells were cultured in Dulbecco's Modified Eagle's Medium (DMEM) (Invitrogen, CA, USA) with 10% fetal bovine serum (HyClone, UT, USA) and 300 μg/ml of geneticin (Invitrogen, CA, USA) in a humidified atmosphere of 5% CO2, 95% air at 37° C. Cells were subcultured after trypsinization, and the medium was changed every 2-3 days.
Most of the APP processing including the cleavage by BACE1 occurs in endoplasmic reticulum (ER)/Golgi complex and endosome. It was investigated if c-Sub M and the deletion series would inhibit processing of APP in the cells. For this examination, HEK293 cells transformed with wild type human APP genes for our investigation was chosen.
The culture media from the peptide-treated cells (see above) was harvested and centrifuged at 3500×g for 10 min. Amount of Aβ in the supernatant was determined with human Aβ1-40 immunoassay kits (Signal Select™, BioSource, CA, USA) according to the instruction provided by the company.

[3] = tested on: cleavage of F-Substrate M (f-Sub M) by rhBACE1; experiment: Fluorometric (FRET) assay for cleavage of F-Substrate M by rhBACE; type: biochemical, human; conditions: cleavage of f-Sub M by rhBACE1 (FIG. 29A)
Description: This assay system utilizes fluorescence resonance energy transfer (FRET) technology. Substrate M was synthesized with two fluorophores, a fluorescent donor and a proprietary quenching acceptor (purchased from a commercial source, R&D Systems). […] Upon cleavage of substrate by β-secretase, the fluorophore is separated from the quenching group, restoring the full fluorescence yield of donor.
Substrate labeled with fluorophores will be called F-Substrate M (R&D Systems). Recombinant human β-secretase will be called rhBACE (recombinant human β-site APP cleavage enzyme) (purchased from R&D systems).
F-Substrate M (20 μM) was preincubated with varying concentrations of complementary peptides in assay buffer (0.1 M NaOAc, pH 4.0) for 1 hr at RT. rhBACE (70 nM) in assay buffer was added. Cleavage by rhBACE was detected by reading emitted fluorescence level.
In this assay system, fluorescence resonance energy transfer (FRET) technology was utilized. Swedish mutant APP substrate (f-Sub M) with a fluorescent donor and a proprietary quenching acceptor (7-methoxycoumarin-4-acetyl-SEVNLDAEFRK(Dnp)-RR-NH2) was purchased from R&D systems, Inc (MN, USA). […] Upon cleavage of substrate by rhBACE1 (R&D Systems, Inc., MN, USA), the fluorescence donor is separated from the quenching group, restoring the full fluorescence yield of the donor. f-Sub M (10 μM) was pre-incubated with HC peptide in assay buffer (0.1 M NaOAc, pH 4.0) for 2 h at RT. After pre-incubation, substrate and HC peptide mixture in assay buffer was transferred to FluoroNunc™ 96 well white plate (Nunc, Roskilde, Denmark), and rhBACE1 (70 nM) was added. Time-dependent emission of fluorescence (excitation at 320 nm, emission at 405 nm) was monitored in a Molecular Devices SpectraMax Gemini EM fluorescence reader (CA, USA) for 1 h at 37° C. All assays were carried out in duplicate.

[4] = molecular target: T1, N-terminally biotinylated Substrate W; experiment: plate assay: HC peptide chemically coupled to wells, bio-Sub W, streptavidin-HRP (FIG. 27)
T1 construct: also called bio-Sub W; Sub W
T1 peptide: Biotin-SEVKMDAEFR
Protocol: (§1) Reacti-Bind™ maleic anhydride-activated polystyrene plate (Pierce, IL, USA) was coated with 50 μl of HC peptide (200 μM in distilled water) by chemical coupling for 3 h at room temperature (RT) and washed three times with phosphate buffered saline (PBS) containing 0.05% tween 20 (PBST). The plate was blocked with blocking buffer (0.5% gelatin in PBS) for 1 h at RT. After discarding blocking buffer, biotinylated BACE1 substrates (200 μM) in blocking buffer was applied on the plate and incubated for 2.5 h at RT. Each well was washed three times with PBST. The bound biotinylated BACE1 substrates were detected by incubation with streptavidin-horseradish peroxidase (Str-HRP, 125 mU/ml in blocking buffer) for 2 h at RT. Color reaction was carried out with 50 μl of 3,3′,5,5′-Tetramethylbenzidine Liquid Substrate (Sigma-Aldrich, MO, USA). After stopping the reaction by addition of an equal volume of 1 N HCl, absorbance at 450 nm was read in an automated ELISA reader (EL 312e, Bio-Tek Instruments, VT, USA). All assays were carried out in duplicate.
Thereafter, it was investigated if the c-Sub M and the deletions series bind to wild type Sub W. The results will give us important information on possibility of inhibition of wild type of APP cleavage in cells by the HC peptides derived from Sub M in view of the poor cleavage of Sub W by rhBACE1 in vitro. […] Thus, there is possibility that the HC peptides for Sub M (c-Sub M series) or its peptidomimetics will inhibit the cleavage of wild type APP by BACE1 in cells.

[5] = molecular target: T2, f-Sub M (7-methoxycoumarin-4-acetyl-SEVNLDAEFRK(Dnp)-RR-NH2); experiment: cell-based or functional assay
T2 peptide: Mca-SEVNLDAEFRK(Dnp)RR-NH2

[6] = molecular target: T3, recombinant human β-secretase (rhBACE1) (human, UniProt P56817 22-457, limits assumed); experiment: ELISA, c-Sub M immobilized
T3 construct: Bought reagent; also called recombinant human β-site APP cleavage enzyme
T3 sequence (P56817 22-457 limits assumed): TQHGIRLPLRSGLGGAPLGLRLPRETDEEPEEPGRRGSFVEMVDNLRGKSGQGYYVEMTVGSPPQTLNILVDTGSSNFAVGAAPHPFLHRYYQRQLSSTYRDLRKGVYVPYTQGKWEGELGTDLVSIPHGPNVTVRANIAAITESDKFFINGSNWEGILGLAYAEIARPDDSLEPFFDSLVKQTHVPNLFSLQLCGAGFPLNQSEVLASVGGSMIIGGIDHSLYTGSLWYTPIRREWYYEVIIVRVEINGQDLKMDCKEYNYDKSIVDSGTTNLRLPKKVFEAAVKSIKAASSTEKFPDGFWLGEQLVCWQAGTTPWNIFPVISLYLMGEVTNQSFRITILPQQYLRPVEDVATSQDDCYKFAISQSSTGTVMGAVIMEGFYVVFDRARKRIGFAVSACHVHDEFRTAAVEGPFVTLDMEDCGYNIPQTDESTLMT

[7] = molecular target: T4, N-terminally biotinylated Substrate M; experiment: plate assay: complementary peptide on wells, biotinylated substrate, streptavidin-HRP
T4 construct: also called bio-Sub M; Sub M
T4 peptide: Biotin-SEVNLDAEFR
Protocol: (§2) Complementary peptides (0.2, 2, 20, and 200 μM) were dissolved in phosphate buffered saline (PBS) (pH 7.4) and fixed to microtiter wells for 5 hr at 37° C. The wells were blocked with blocking buffer (3% BSA/PBS) for 1 hr at 37° C. Either N-terminally biotinylated Substrate W or M (20 μM) in blocking buffer was added and incubated for overnight at 4° C. Streptavidin-horseradish peroxidase in blocking buffer was added to detect resulting bound substrates. The plate was incubated for 2 hr at room temperature (RT), followed by addition of 3,3′,5,5′-tetramethyl-benzidine (TMB) as substrate for horseradish peroxidase for color reaction.

[8] = molecular target: T4, N-terminally biotinylated Substrate M; experiment: plate assay: HC peptide chemically coupled to wells, bio-Sub M, streptavidin-HRP (Table 1)
Protocol: as §1
The HC peptides were chemically coupled to the surface of a microtiter plate to minimize the different coating efficiency of peptides, and the Sub M labeled with biotin (bio-Sub M) was applied. bio-Sub M bound to c-Sub but not to Sub M-c (FIG. 25A). To test inhibitory activity of HC peptide, FRET assay system was used as described above. […]

[9] = molecular target: T1, N-terminally biotinylated Substrate W; experiment: plate assay: complementary peptide on wells, biotinylated substrate, streptavidin-HRP
Protocol: as §2

[10] = molecular target: T4, N-terminally biotinylated Substrate M; experiment: plate assay: HC peptide chemically coupled to wells, bio-Sub M, streptavidin-HRP (Table 2)
Protocol: as §1
The binding and inhibitory activities of these peptides were determined as described in Experimental Procedures. The concentration of HC peptides and f-Sub M was 0.5 mM and 10 μM, respectively. All the experimental data for the binding activity as well as for the inhibitory activity were within 5% error range.

β-secretase inhibitor IV [reference compound]
accumulation of the cleavage product CTFβ [1]: inhibited accumulation of only the nonphosphorylated form of CTFβ
inhibition of production of Aβ ([2]; 2 μM): about 90%

NH2-(CH2)5-CO-Cys-Ile-Gln-Ile-His-Phe-NH2 ([Ahx]CIQIHF-NH2; N-terminus assumed; SMILES CC[C@H](C)[C@H](NC(=O)[C@H](CCC(N)=O)NC(=O)[C@@H](NC(=O)[C@H](CS)NC(=O)CCCCCN)[C@@H](C)CC)C(=O)N[C@@H](Cc1c[nH]cn1)C(=O)N[C@@H](Cc1ccccc1)C(N)=O) [AHX-c-Sub M ΔN3C1]
accumulation of the cleavage product CTFβ [1]: inhibited the accumulation of both forms of CTFβs
in vitro inhibitory activity relative to non-modified c-Sub M ΔN3C1 [3]: by half
reduction of amount of Aβ released ([2]; 6.25 μM, 9 h): about 70%
amount of Aβ released into the culture medium ([2]; increasing concentrations): reduced in a concentration dependent manner

B1: c-Sub M (peptide)
peptide: SEFCIQIHFR-NH2
notes: Hydropathic complementary decapeptide to Sub M, read 5'-3'
fold binding to Sub W relative to c-Sub W [4]: 4 fold
inhibition of cleavage of f-Sub M by rhBACE1 (FRET), HC peptide 100 fold over substrate [5]: ~50%
inhibitory activity for the cleavage of f-Sub M by rhBACE1 (FRET; HC peptide 1 mM, f-Sub M 10 µM) [5]: 45%
binding result [6]: no binding
binding result [7]: binds

B2: Sub W-c (peptide)
peptide: RLHFYLRLKA-NH2
notes: Hydropathic complementary decapeptide to Sub W, read 3'-5'
binding result [8]: binds

B3: c-Sub W (peptide)
peptide: SEFCIHLHFR-NH2
notes: Hydropathic complementary decapeptide to Sub W, read 5'-3'
binding result [8]: binds
binding result [9]: binds

SEFCIQIHF-NH2 [c-Sub M ΔC1]
binding result [10]: binds
inhibitory activity for the cleavage of f-Sub M by rhBACE1 (FRET; HC peptide 1 mM, f-Sub M 10 µM) [5]: 90%
